Data taken from the DeepSol protein solubility set.

Experiment: soluble on expression in E. coli; label from the status in PepcDB or PDB records

Row | Sequence | soluble on expression in E. coli
1 | GPGSMVSRDSRYIHRRWYLEDATLTIQQPKLELLVDFDDPSSFAFPANLPPTLGMRRAAAVATATGGLSGVMGLGSEGNLLADWREIGIPPFTEE | not soluble
2 | MLPPYNYMDNGTLKGISIDLLEAITEKMGKKVTREEIHLVSWTEGYQAALTRNNTVLFVTARTPEREQSFKWVGPIYSDKYVLFAKRDPGVTIDGPEDLKEYRIGVISDDVAAQQLLNIGVNQSQLEHHHHHH | not soluble
3 | MGSDKIHHHHHHMSIQVKALSKRIDNREILRGITFTWQPGRIVGLVGRNGVGKTTLFRTMADHYLADEGELVIEGQSTLQQPYCRQKLFYIDTQRHFFGGRRLRQIITTYALAYDDFDQSQLTALLAAEHLSTKSYYQRLSKGQQMLFQILLALASHVPYIILDEPFDGLDIIVRERIVAYMVEEVAEHGVSFLISSHNLDELDGLCDQVLFLQHHELVADYDLESLRATARKFQLVFADKHIPAVVKEHGQLIKVYGRVLEVYFADYTPTIETALQQTQPLMMAVQPLTITDVFRVKLGDRQAVWGGV | not soluble
4 | MKNEELDFDITVFDEGKADLKAAAIYNVPFFPKGAKADEIYTHIKAQIASMLEVKYIDSKVVSISGEKGDFTVNDEQGLGIKADYIIVATGANKSDIKELEDFVIPHELMPKPNKFCFKHHGRQIIKEGIYAAGLASGVTTMVACAMGSANEAACAILSDIKGAVSVYHDTPLEHHHHHH | not soluble
5 | MSLLPRTTSVKPGEKFDVIIVGLGPAAYGAALYSARYMLKTLVIGETPGGQLTEAGIVDDYLGLIEIQASDMIKVFNKHIEKYEVPVLLDIVEKIENRGDEFVVKTKRKGEFKADSVILGIGVKRRKLGVPGEQEFAGRGISYCSVADAPLFKNRVVAVIGGGDSALEGAEILSSYSTKVYLIHRRDTFKAQPIYVETVKKKPNVEFVLNSVVKEIKGDKVVKQVVVENLKTGEIKELNVNGVFIEIGFDPPTDFAKSNGIETDTNGYIKVDEWMRTSVPGVFAAGDCTSAWLGFRQVITAVAQGAVAATSAYRYVTEKKGKK | soluble
6 | MRGLAVLVLLVFAVQVAAAEDFRPVVFVHGLAGSAGQFESQGMRFAANGYPAEYVKTFEYDTISWALVVETDMLFSGLGSEFGLNISQIIDPETLDKILSKSRERLIDETFSRLDRVIDEALAESGADKVDLVGHSMGTFFLVRYVNSSPERAAKVAHLILLDGVWGVDAPEGIPTLAVFGNPKALPALGLPEEKVVYNATNVYFNNMTHVQLCTSPETFAVMFEFINGYKPATTDIVPQDGDYVKVKGKFLAFATNGDVSGWLSIYPIDENGKRLTRLPVKFMRVKGDFEVRLRKGQLYEFQFRKDFSPIIYHYYRAPFVRDDLWARFLVSKPPLDVELLILPERLSPAAKETSGLLLIRYKEMIGEYDEEIGGVDEVYVNGVNVCTERICPIERAVNGLWVFDRGADGKSDLDREVVRYSIMPFMSAADLVVPAEGTISIAVKSRTGGEESFTIPAWSADRHSIIVQFSDYI | not soluble
7 | AHHHHHHGSPTWEELYKNAIEKAIKSVPKVKGVLLGYNTNIDAIKYLDSKDLEERIIKAGKEEVIKYSEELPDKINTVSQLLGSILWSIRRGKAAELFVESCPVRFYMKRWGWNELRMGGQAGIMANLLGGVYGVPVIVHVPQLSRLQANLFLDGPIYVPTLENGEVKLIHPKEFSGDEENCIHYIYEFPRGFRVFEFEAPRENRFIGSADDYNTTLFIREEFRESFSEVIKNVQLAILSGLQALTKENYKEPFEIVKSNLEVLNEREIPVHLEFAFTPDEKVREEILNVLGMFYSVGLNEVELASIMEILGEKKLAKELLAHDPVDPIAVTEAMLKLAKKTGVKRIHFHTYGYYLALTEYKGEHVRDALLFAALAAAAKAMKGNITSLEEIREATSVPVNEKATQVEEKLRAEYGIKEGIGEVEGYQIAFIPTKIVAKPKSTVGIGDTISSSAFIGEFSFTL | not soluble
8 | NKNFSWNVNFNLTHFKNKVLELSPELNGQLIDGARIYREDESMYQLYLPKYVGVDSETGESLWALVTPDENGNTVTKSYSVASENRFASGDILPKVYGGFGTSVTAYGFDLSVSFAYQLGGRILDYTYQGLMDVAATGSALHKDMLKAWTPENKNTDVPRMNINDQYTNRLTDRFLTSSDYLSLQNITLGYTLPKSLTRKMQIDGVRVFFVADNVALLTARKGLDPRQGYVAADNVYSPIRTISGGISLNF | not soluble
9 | MKIIGKIGKGKVEVNEKTKFSILLNNVAKKADIAEGKRAVEDIIRVIYRHQPISTKKIAQKTRLPLPIVAKVRTILEREKILKRTERGAELTDLGKEFAENFLKLKYKKSLTCKTCNGRGIVLDEFFEDILNKVRVWAKRRPLVDTTIDQSFATPETSTYRAALMYERGDLEGKRILFVGDDDLTSLPTALTNMAEEIAVVDIDERILKLIEKFSQKEGVKIKTIKHDLRNPLPQDLKERFDVISTDPPYTVDGLKLFLSRGIEALGKEGIAYLSYSHKPIDEWLSIQKAITNMGFVISELIPNFNYYEGSEIIANTTFIARLVGKNLKINIGDTEKIYTGLVKPVIRYYKCLKCGKIHKVGEEVKKVEDLVCECGGKKFKMIKREKLKNELEHHHHHH | soluble
10 | MVASYEIEFIGEGEVAGILREALRTDSRVESFEEFERGFKLRLVGAKRRITIVCKGSVQSDDCLLIVNARKMPENGGIALNADKIAERCGSKPEIAMLGAIAKLGVVDLKRLMSVIYREMGYGDVLAVKKGFEATNI | not soluble
11 | MSDLVMFEPGASTSTDVPTNTDQTAMSTTQVVDALECDTFEGLMNVNETYVEILDSALLSVQQHLDDNLKRQQQLKEEYRLYNRADITKRKVPVHLYMPPYFKDDNNMYPPMSSEAREKQVLKWFDPMMKEEKKWTPSEIKTLRTSVKNALVAHQVQPWCSRRDIVASKLRDADITTSNFDRRQWTMELEDLMRKIAYVREKSEEEVLTASADYTVVPWTAIANFDFKGSRTEWAVKSKWYNELNPKWNKEHWSNEEVEKLKYLRESPKFVSWPMLALNLGTNRTSYQCMEKYKTEVSQHSKEWSQDEDTKLIALTKITSINGHIQWDKVAQCMPGRTRQQVRTRFSHTLDASVKHGRWTDQEDVLLVCAVSRYGAKDWAKVAQAVQNRNDSQCRERWTNVLNRSAHVNERFTLVEDEQLLYAVKVFGKGNWAKCQMLLPKKTSRQLRRRYLQLIAAKLRLAAGFCNAVDAMKSGRRAPEEDELEQEDIVEAEQIPNELMKEVYEKFANENPDMNETPEEFYKRVSALERPAAARIRALKNKPDYQKIQDKINEIVQKHKNAAEIDKELHSSEILSSLTITEVDVRYMIERSKTLTRYYEARQFRKNVDQIGCRVRPIKIDLDPETMPTFDPNDAEDEKQMVIVESLCSVIRAHDVKEWGTKFWNEHRFTAPKYAKRFVENMVINKSKEVAEWYLHVNSKSCNQNDVHCPAKSTLPPTAASFDLHKMLQKARSGLNRLSAEHFYPLDVSLAQQFNFKNDEREGLDGDRRMHIGLSDEVTNSKEYANFYARMRSILLEPMRLGIARESSSDETKRLVRCLAEERACDEEQQVTCDQIRRRRMPDDEIYVTPTSISRELNNGMKIDTTELLANLDKNSAKKIRMKRKIGEVRCDTKIKLLPLVILATVATVAARPARPPRSSAGTPTPSHVSIDTESNISLKVELD | not soluble
12 | DELLALASIYDGDEFRKAESVQGGETRIYLDLPQNFKIFVSGNSNECLQNSGFEYTICFLPPLVLNFELPPDYPSSSPPSFTLSGKWLSPTQLSALCKHLDNLWEEHRGSVVLFAWMQFLKEETLAYLRIRLLTKPERKLSWLLPPLSNN | not soluble
13 | GPGSMLNTAFSTADGRRLPRDLTDQQKRDIEEAFRVLDVKGVSTITPNDLKVALRALGYEPDKDAVRKLVAEMDRGGVSSNLVLSEFEDVMRQRFFAEDKDDEVDLAFPLFTEGKSEFISLDDLKRVAAEVGEDIPEDVLQEIIRECDVLDRDGRISREEFNKMLKSDK | soluble
14 | MSMERSLEAWEEVQRHGQDLADRLAQGFTGLIHINPPSFPWPPNHHHLHKAKLFDLEFPTQHFSVIKDSRFSINQPINGVTAILDIGNKIGQAGVDFGAGLNVMVQQFFRRLPIPFLHEDNNKLVVSVDGDKSTRSHRAYVITKGDLGMATERLRDSGFSKTDDTASVTMSEEEVADSYLRAAGLLGRSKGTIDTSSSYDSRTNGMEHSLAARGDLWRVEASHSSSTASDGNSSLFLLQLGPLLFLRDSTLLLPLHLSKQHLLWYGYDRKSFMDLQFPNGQLTYVSGEGLTTSAFVPFCGGLLQAQGQYPGDMRFSYSCKNKCGTRITPMVHWPDKSFGLDLSQPLAWRRSGLLMKPTIQVSVCPTFGGSNPGIKAEVIHSLSDDLNLICGYALNAHPSAFASVAFGRSKWNGNIGRTGIVVRADTPLASIGQPSFSIQLNNAFEF | soluble
15 | MSLDKHLLVKRTLGCVCAATLMGAALATHHDSLNTVKAEEKTVQVQKGLPSIDSLHYLSENSKKEFKEELSKAGQESQKVKEILAKAQQADKQAQELAKMKIPEKIPMKPLHGPLYGGYFRTWHDKTSDPTEKDKVNSMGELPKEVDLAFIFHDWTKDYSLFWKELATKHVPKLNKQGTRVIRTIPWRFLAGGDNSGIAEDTSKYPNTPEGNKALAKAIVDEYVYKYNLDGLDVDVEHDSIPKVDKKEDTAGVERSIQVFEEIGKLIGPKGVDKSRLFIMDSTYMADKNPLIERGAPYINLLLVQVYGSQGEKGGWEPVSNRPEKTMEERWQGYSKYIRPEQYMIGFSFYEENAQEGNLWYDINSRKDEDKANGINTDITGTRAERYARWQPKTGGVKGGIFSYAIDRDGVAHEGHHHHHH | soluble
16 | VPRIRKLVAALHRRGPHRVLRGDLAFAGLPGVVYTPEAGLHLPGVAFGHDWLTGTSRYSGLLEHLASWGIVAAAPDSERGLAPSVLNLAFDLGVALDIVAGVRLGPGKISVHPAKLGLVGHGFGGSAAVFAAAGLTGTHVKSVAAIFPTVTNPAAEQPAATLDVPGLILTAPGDPKTLTSNALGLSRAWDKATLRIVSKARAGGLVEGRRLTKVLGLPGPHRRTQRSVRALLTGYLLYTLGGDKTYRRFADPDLQLPKTDPIDPEAPPITPGEKIVTLLK | not soluble
17 | SLAFVCLAIGCLYTFLISTTFGCTSSSDTEIKVNPPQDFEIVDPGYLGYMYLQWQPPLSLDHFKECTVEYELKYRNIGSETWKTIITKNLHYKDGFDLNKGIEAKIHTMLPWQCTNGSEVQSSWAETTYWIS | soluble
18 | MDLPKAYDPKSVEPKWAEKWAKNPFVANPKSGKPPFVIFMPPPNVTGSLHMGHALDNSLQDALIRYKRMRGFEAVWLPGTDHAGIATQVVVERLLLKEGKTRHDLGREKFLERVWQWKEESGGTILKQLKRLGASADWSREAFTMDEKRSRAVRYAFSRYYHEGLAYRAPRLVNWCPRCETTLSDLEVETEPTPGKLYTLRYEVEGGGFIEIATVRPETVFADQAIAVHPEDERYRHLLGKRARIPLTEVWIPILADPAVEKDFGTGALKVTPAHDPLDYEIGERHGLKPVSVINLEGRMEGERVPEALRGLDRFEARRKAVELFREAGHLVKEEDYTIALATCSRCGTPIEYAIFPQWWLRMRPLAEEVLKGLRRGDIAFVPERWKKVNMDWLENVKDWNISRQLWWGHQIPAWYCEDCQAVNVPRPERYLEDPTSCEACGSPRLKRDEDVFDTWFSSALWPLSTLGWPEETEDLKAFYPGDVLVTGYDILFLWVSRMEVSGYHFMGERPFKTVLLHGLVLDEKGQKMSKSKGNVIDPLEMVERYGADALRFALIYLATGGQDIRLDLRWLEMARNFANKLYNAARFVLLSREGFQAKEDTPTLADRFMRSRLSRGVEEITALYEALDLAQAAREVYELVWSEFCDWYLEAAKPALKAGNAHTLRTLEEVLAVLLKLLHPMMPFLTSELYQALTGKEELALEAWPEPGGRDEEAERAFEALKQAVTAVRALKAEAGLPPAQEVRVYLEGETAPVEENLEVFRFLSRADLLPERPAKALVKAMPRVTARMPLEGLLDVEEWRRRQEKRLKELLALAERSQRKLASPGFREKAPKEVVEAEEARLKENLEQAERIREALSQIG | soluble
